Experimental data from article PMC5056995.

B1: GL56 (seq5/Gi-2) (XNA)
RNA: GGAGACAAGAAUAAACGCUCAAUGAUUUUGCAGCACUUCUUGUUAUCUUAACGAACUGUUGAUGAUUCGACAGGAGGCUCACAACAGGC
modifications: 2'-fluoro pyrimidines (all C and U), RNA purines
B2: GL56 5'-biotin (printed as GL56.T in ELASA methods) (XNA)
RNA: B1 RNA
modifications: 2'-fluoro pyrimidines (all C and U), RNA purines

Tests used:
[1] = molecular target: T1, insulin receptor extracellular domain (EC-IR) (UniProt P06213 28-956); test: filter binding with RT-qPCR
[2] = molecular target: T1, insulin receptor extracellular domain …; test: ELASA

T1 sequence (P06213 28-956): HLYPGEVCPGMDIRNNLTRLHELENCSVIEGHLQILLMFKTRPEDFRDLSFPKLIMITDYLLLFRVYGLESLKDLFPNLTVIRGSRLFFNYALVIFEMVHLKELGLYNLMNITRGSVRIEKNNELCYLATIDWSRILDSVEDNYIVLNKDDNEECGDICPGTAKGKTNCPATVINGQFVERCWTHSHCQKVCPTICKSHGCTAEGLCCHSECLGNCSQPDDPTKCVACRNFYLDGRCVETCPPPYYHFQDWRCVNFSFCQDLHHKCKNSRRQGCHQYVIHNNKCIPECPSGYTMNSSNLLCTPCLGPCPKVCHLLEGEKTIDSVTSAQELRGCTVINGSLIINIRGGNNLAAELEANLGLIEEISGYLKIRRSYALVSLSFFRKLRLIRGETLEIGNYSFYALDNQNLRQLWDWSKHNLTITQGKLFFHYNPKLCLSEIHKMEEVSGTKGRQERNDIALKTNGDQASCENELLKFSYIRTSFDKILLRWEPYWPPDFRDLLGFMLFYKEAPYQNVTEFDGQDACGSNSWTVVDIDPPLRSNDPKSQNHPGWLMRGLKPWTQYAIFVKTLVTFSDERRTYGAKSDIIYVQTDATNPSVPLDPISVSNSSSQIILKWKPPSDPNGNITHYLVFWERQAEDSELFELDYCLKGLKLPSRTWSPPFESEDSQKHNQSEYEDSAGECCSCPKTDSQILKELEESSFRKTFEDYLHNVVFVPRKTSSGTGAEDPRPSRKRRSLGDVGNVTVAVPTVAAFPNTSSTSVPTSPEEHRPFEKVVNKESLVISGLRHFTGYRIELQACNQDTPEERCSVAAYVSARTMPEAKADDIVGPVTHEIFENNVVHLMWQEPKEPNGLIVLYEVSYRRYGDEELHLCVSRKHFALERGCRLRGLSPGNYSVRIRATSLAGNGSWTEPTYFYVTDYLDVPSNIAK

| Binder | binding result [1] | binding result [2] |
| --- | --- | --- |
| B1 | binds |  |
| B2 |  | binds |
